Data reported in the nanobody polyreactivity screen of Harvey et al. (2022).

Assay: yeast display, Sf9 membrane polyspecificity reagent, FACS + sequencing; frameworks hold sequencing errors
How it was run: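 Genes from sorted yeast were amplified by colony PCR, read by MiSeq 2 × 250 sequencing and filtered on CDR length. These cells carried a synthetic nanobody library in Saccharomyces cerevisiae BJ5465 and were sorted by FACS into low and high (top ~1%) gates on anti-HA and streptavidin fluorescence. Polyreactivity is labelled according to the gate of origin.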

Row | Sequence | polyreactivity (PSR sort gate)
1 | QVQLVESGGGLVQAGGSLRLSCAASGFIFSGYAMGWSRQAPGKERELVAAITWSGSNTFYADSVKGRFTISRDNAKNTVYLQMNSLKPEDTAVYYCNAVSKYKRSDYYYWGQGTQVTVSS | high polyreactivity
2 | QVQLVESGGGLVQAGGSLRLSCPASGSTIPVNAMVWYRQAPGKERELVAAIRSSTGRTYYADSVKGRFTTSRDNAKNTVYLQMNSLKPEDTAVYYCAADYRYNRGITSNKDYDYWGQGTQVTVSS | low polyreactivity
3 | QVQLVESGGGLVQAGGSLRLSCAASGSIFPGYAMGWYRQAPGKERELVAAIDRSGGSTYYADSVKGRFTISRDNAKNTVYLQMNSLKPEDTAVYYCNRVFTWRYGYRYEYWGQGTQVTVSS | high polyreactivity
4 | QVQLVESGGGLVQAGGSLRLSSAASGSIFGYNPMGWYRPAPGKERELVAAIRISTDNTYYADSVKGRFTISRDNAKNTVYLQMNSLKPEDTAVDYCAADEYWWGYYYWGQGTQVTVSS | high polyreactivity
5 | QVQLVESGGGLVQAGGSLRLSCAGSGFTFSSYTIGWYRQAPGKEREFVASISSGGSTNYADSVKGRFTISRDNAKNTVYLQMNSLKPEDTAVYYCAAGTTGITFFDVGSGYDYWGQGTQVTVSS | low polyreactivity
6 | QVQLVESGGGLVQAGGSLRLSCAASGFIFKYYAMGWYRQAPGKERELVATITRRGGSTYYADSVKGRFTISRDNAKNTVYLQMNSLKPEDTAVYYCNVTPDWNARRPFDYWGQGTKVTVSS | high polyreactivity
7 | QVQLGESGGGLVQAGGSLRLTCAASGYIFISDAMGLYRQAHGKEREFVAAITGDGGSTYADSVKGRFTISRYNAKNTVYLQMNSLKPEDTAVYYCAAEGQLFDLYDYWGQGTEVTVSS | low polyreactivity
8 | QVQLVESGRGLVQAGGSLRLSCAASGRTLAFNAMGWYRQAPGKERELVAVIRNGTSTNYADSVKGRFTISRDNAKNTVYLQMNSLKPEDTAVYYCNVPYYLPSYLSGYDYWGQGTQVTVSS | low polyreactivity
9 | QVQLVESGGGLVQAGGSLRISCAASGRTVWNTLGWYRQAPGKERELVAAISYSGGTTYYADSVKGRFTISRDNAKNTVYLQMNSLNPEDTAVYYCAAVRVLRGVKYNYWGQGTEVTVSS | high polyreactivity
10 | QVQLVESGGGLVQAGGSLRLSCAASGRIFWGYAMGWYRQAPGKERELVAGITTGGSTKYADSVKGRFTISRDNAKNTVYLQMNSLKPEDTAVYYCAATGKWYHFYHYGYWGQGTQVTVSS | low polyreactivity
11 | QVQLVESGGGLVQAGGSLRLSCAASGSTFTGYALGWYRQAPGKEREFVATITKRGGRTYYADSVKGRFTISRDNAKNTVYLQMHSLKPEDTAVYYCARDQGKLVVPYDYWGQGTQVTVSS | high polyreactivity
12 | QVQLVESGVGLVQAGGSLRLSCAASGLIFGRNVMGWYRQAPGKERVLVAAISWSGGRTYYADSVKGRFTISRDNAKNTGYLQMNRLKPEDTAVDYCATDRSTRTYRSPYDYWGQGTQVTVSS | high polyreactivity
13 | QVQLVESGGGLVQAGGSLRLSCAASGSTFIGYAMGWYRQAPGKEWELVAAISWSGGRTYYADSVKGRFTISRDNEKNTVYLQMNSLKPEDTAVYYCAASYYGCSARYDTLGIYEYWGLGTQVTVSS | high polyreactivity
14 | QVQLVESGGGLVQAGGSLRLSCAASGRTFSYYTMVWYRQAPGKERELVARISNRGTNTYYADSVKGRFTISRDNAKNTVYLQMNSLKPEDTAVYYCAKYYYTSIVGYDSWGQGSQVTVSS | low polyreactivity
15 | QVQIVESGAGLVQAGGSLRISCAPSGLTFGYYAMGWYRQAPGKERELVAAISSSGVNTYYADSVKGRFTISRDNAKNTVYLQMNSLKPEDTAVYYCNTVPKPWYSWKYAYDYWGHGTQVTVSS | high polyreactivity
16 | QVQLVESGGGLVQAGGSLRLSCAASGSIFVANAMGWYRQAPVKERELVAAISRRGGSTYYADSVKGRFTISRDNAKNTVYLQMNSLKPEDTAVYYCAAEDVYEYDYWGQGTQVTVSS | high polyreactivity
17 | QVQLVESGGGLVQAGGSLRLSCAASGIIFDSYAMGWYRQAPGKERELVAAITSDSGRTYYADSVKGRFTISRDNAKKTVYLQMNSLKPEDTAVYYCAKRWDGPYDYWGQGTQVTVSS | low polyreactivity
18 | QVKLVESGGGLVQAGGSLRLSCAASGSIFPRYAMGWYRQAPGKERELVAAITGSGSSTYYADSVKGRFTISRDNAKNTVYFQMNSLKPEDTAVYYCAARKARPPFPHPFDYYWGQGTQVTVSS | low polyreactivity
19 | QVQLVESGGGLVQAGGSLRLSCAASGRIFDNYVMGWYRQAPGKERELVAAITWDGTSTYYADSVKGRFTISRDNAKNTVYLQMNSLKPEDTAVYYCAADFYPYSWEEVDYWGQGTQVTVSS | low polyreactivity
20 | QVQLVESGGGLVQAGGSLRLSCAASGSTFSVNPMGWYRQARVKERELVAAIDSGDSTYYADSVKGRFTISRDNAKNTVYLQMNSLKPEDTAVYYCATDVTFVYDLGYFQYDYWGQGTQVTVSS | low polyreactivity
21 | QFQLVESGGGLVQAGGSLRLSCAASGRTFYAYAMGWYRQAHGKARELVAAIRGRTYYADSVKGRFTISSDNAKNTVYLQMNSLKPEDTAVYYCAARWVPREKLMFYWGQGTQVTVSW | high polyreactivity
